Assay [1] concerns the target T1, Anti-CD28 scFv (VH-linker 1-VL) (biotinylated (site not stated)).
T1 construct: biotinylated and captured on neutravidin coated plates in the phage ELISA
The experiment in a line: phage binding ELISA on captured biotinylated anti-CD28 scFv. (In an ELISA, binding on a coated surface is turned into a signal by an enzyme label.)

The target in assay [2] is T1, Anti-CD28 scFv (VH-linker 1-VL). The experiment in a line: phage binding ELISA on captured anti-CD28 scFv, wells pre-incubated with soluble CD28 (competitor).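 Also: crude clonal phage supernatants added without washing, bound phage detected by HRP-conjugated anti-M13 antibody, control wells held blocking buffer alone instead of CD28.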
Procedure: Clonal phage were harvested as crude supernatants and screened via standard enzyme linked immunosorbent assays (ELISAs). […] Prior to the addition of clonal phage, wells were incubated with blocking buffer and CD28 soluble protein or blocking buffer alone. Without washing or aspirating, clonal phage supernatants were then added to the wells and incubated for a short time. Wells were then washed followed by detection of bound phage using a horse radish peroxidase conjugated anti-M13 antibody.

T1 sequence (scFv, as listed by the source): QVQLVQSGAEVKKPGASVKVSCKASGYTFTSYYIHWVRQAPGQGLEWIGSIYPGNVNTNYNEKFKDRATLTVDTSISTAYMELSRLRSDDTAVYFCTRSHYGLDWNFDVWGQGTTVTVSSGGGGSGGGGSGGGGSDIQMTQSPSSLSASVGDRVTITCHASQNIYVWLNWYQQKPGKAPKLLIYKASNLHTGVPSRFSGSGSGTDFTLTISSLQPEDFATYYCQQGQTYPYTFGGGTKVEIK

Take IMWCPTSLWNRCVT [Phage-384]: in assay [1], the “CD28 scFv signal” value was 0.161. In assay [2], the “CD28 scFv signal in presence of CD28” value was 0.129.

MDWCPLFLWDQCFN [Phage-347]: the “CD28 scFv signal” value in assay [1] is 1.82. Also, the “CD28 scFv signal in presence of CD28” value in assay [2] turned out to be 0.264.

Take MDWCPRLLWHECFN [Phage-357]: the “CD28 scFv signal” value in assay [1] is 1.6. In assay [2], the “CD28 scFv signal in presence of CD28” value is 0.109.

Regarding MDWCPRILWHECFS [Phage-362], the “CD28 scFv signal” value in assay [1] amounted to 1.39. The “CD28 scFv signal in presence of CD28” value in assay [2] was 0.174.

Regarding MAWCPWYLWDECFN [Phage-348], the “CD28 scFv signal” value in assay [1] is 1.81. For the same molecule, in assay [2], the “CD28 scFv signal in presence of CD28” value turned out to be 0.267.

Turning to MDWCPRDLWNWCFN [Phage-336], in assay [1], the “CD28 scFv signal” value came to 2.03. The “CD28 scFv signal in presence of CD28” value in assay [2] amounted to 0.39.

As for MSWCPPYLWTVCYN [Phage-368], in assay [1], the “CD28 scFv signal” value came out at 1.1. Moreover, the “CD28 scFv signal in presence of CD28” value in assay [2] came to 0.326.

Regarding MDWCPSYLWPVCFN [Phage-365], the “CD28 scFv signal” value in assay [1] is 1.18. For the same molecule, the “CD28 scFv signal in presence of CD28” value in assay [2] was 0.131.

For MDWCPRNLWAECFS [Phage-379], the “CD28 scFv signal” value in assay [1] was found to be 0.538. Further, the “CD28 scFv signal in presence of CD28” value in assay [2] was found to be 0.08.

In the case of MDWCPRHLWVHCFS [Phage-344], the “CD28 scFv signal” value in assay [1] was 1.91. Moreover, in assay [2], the “CD28 scFv signal in presence of CD28” value turned out to be 0.173.

In the case of MHWCPRDLWYECFA [Phage-369], the “CD28 scFv signal” value in assay [1] was 0.995. In addition, in assay [2], the “CD28 scFv signal in presence of CD28” value came out at 0.108.

Regarding MDWCPFDLWLECFN [Phage-377], in assay [1], the “CD28 scFv signal” value was determined as 0.65. Moreover, in assay [2], the “CD28 scFv signal in presence of CD28” value was determined as 0.12.

Consider MDWCPWFLWNECFN [Phage-350], for which the “CD28 scFv signal” value in assay [1] came to 1.77. Also, in assay [2], the “CD28 scFv signal in presence of CD28” value is 0.279.

Regarding MDWCPRILWSDCFN [Phage-373], the “CD28 scFv signal” value in assay [1] came to 0.847. Also, the “CD28 scFv signal in presence of CD28” value in assay [2] turned out to be 0.113.

Consider MDWCPRHLWHACFS [Phage-346], for which the “CD28 scFv signal” value in assay [1] was determined as 1.83. Also, the “CD28 scFv signal in presence of CD28” value in assay [2] worked out at 0.167.

MNWCPRALWHECFL [Phage-375]: the “CD28 scFv signal” value in assay [1] stood at 0.759. Also, the “CD28 scFv signal in presence of CD28” value in assay [2] is 0.107.

Regarding MDWCPMFLWHECFS [Phage-360], in assay [1], the “CD28 scFv signal” value was 1.44. Further, in assay [2], the “CD28 scFv signal in presence of CD28” value amounted to 0.193.

On to MAWCPLDLWDKCFY [Phage-374], for which, in assay [1], the “CD28 scFv signal” value came out at 0.77. Further, the “CD28 scFv signal in presence of CD28” value in assay [2] turned out to be 0.141.

For ILRCQMNLQDECLN [Phage-385], the “CD28 scFv signal” value in assay [1] was 0.083. In addition, the “CD28 scFv signal in presence of CD28” value in assay [2] worked out at 0.077.

MDWCPRDLWTQCFF [Phage-343]: the “CD28 scFv signal” value in assay [1] is 1.93. In assay [2], the “CD28 scFv signal in presence of CD28” value was 0.119.

Consider MSWCPIDLWSECFA [Phage-340], for which the “CD28 scFv signal” value in assay [1] was found to be 1.99. The “CD28 scFv signal in presence of CD28” value in assay [2] amounted to 0.148.

For the molecule MHWCPLYLWDECFY [Phage-366], the “CD28 scFv signal” value in assay [1] worked out at 1.16. The “CD28 scFv signal in presence of CD28” value in assay [2] turned out to be 0.376.

For MDYCPSYLWHECFA [Phage-380], the “CD28 scFv signal” value in assay [1] is 0.47. In assay [2], the “CD28 scFv signal in presence of CD28” value turned out to be 0.09.

In the case of LDWCPRHLWALCFN [Phage-349], the “CD28 scFv signal” value in assay [1] stood at 1.78. The “CD28 scFv signal in presence of CD28” value in assay [2] is 0.24.

On to MDWCPRHLWTYCFH [Phage-376], for which the “CD28 scFv signal” value in assay [1] stood at 0.757. In assay [2], the “CD28 scFv signal in presence of CD28” value came to 0.207.

As for MDWCPSFLWYECFN [Phage-367], in assay [1], the “CD28 scFv signal” value turned out to be 1.13. Further, the “CD28 scFv signal in presence of CD28” value in assay [2] turned out to be 0.104.

As to MDWCPRFLWDYCFA [Phage-335], in assay [1], the “CD28 scFv signal” value worked out at 2.03. For the same molecule, the “CD28 scFv signal in presence of CD28” value in assay [2] turned out to be 0.207.

Consider MNWCPMHLWAECFN [Phage-363], for which the “CD28 scFv signal” value in assay [1] was determined as 1.39. Further, the “CD28 scFv signal in presence of CD28” value in assay [2] came to 0.14.

Take MDWCPRYLWDECFS [Phage-334]: the “CD28 scFv signal” value in assay [1] stood at 2.06. Further, the “CD28 scFv signal in presence of CD28” value in assay [2] was 0.164.

Take ITWCPTSLWNRCLV [Phage-382]: the “CD28 scFv signal” value in assay [1] came out at 0.242. For the same molecule, the “CD28 scFv signal in presence of CD28” value in assay [2] was 0.089.

Turning to MDWCPKPLWHVCFA [Phage-337], the “CD28 scFv signal” value in assay [1] is 2.02. The “CD28 scFv signal in presence of CD28” value in assay [2] is 0.152.

For NHWCPTTLWNRCVA [Phage-386], the “CD28 scFv signal” value in assay [1] came to 0.078. Moreover, in assay [2], the “CD28 scFv signal in presence of CD28” value stood at 0.093.

For the molecule LAGCQRDLATVCVI [Phage-383], the “CD28 scFv signal” value in assay [1] was 0.229. In assay [2], the “CD28 scFv signal in presence of CD28” value stood at 0.116.

As for MDWCPRFLWNECFY [Phage-338], in assay [1], the “CD28 scFv signal” value worked out at 2. Moreover, the “CD28 scFv signal in presence of CD28” value in assay [2] stood at 0.287.

Regarding MTWCPAYLWHECFN [Phage-370], the “CD28 scFv signal” value in assay [1] worked out at 0.985. In assay [2], the “CD28 scFv signal in presence of CD28” value turned out to be 0.139.

With MDWCPRSLWAQCFY [Phage-364], the “CD28 scFv signal” value in assay [1] stood at 1.39. The “CD28 scFv signal in presence of CD28” value in assay [2] was 0.14.

In the case of MDWCPMYLWDECFF [Phage-356], the “CD28 scFv signal” value in assay [1] turned out to be 1.65. Besides, the “CD28 scFv signal in presence of CD28” value in assay [2] was determined as 0.178.

As to MDWCPIHLWYECFN [Phage-352], the “CD28 scFv signal” value in assay [1] turned out to be 1.73. Moreover, the “CD28 scFv signal in presence of CD28” value in assay [2] is 0.203.

On to MDWCPRTLWDQCFF [Phage-339], for which, in assay [1], the “CD28 scFv signal” value worked out at 1.99. In addition, in assay [2], the “CD28 scFv signal in presence of CD28” value came to 0.314.

Take IDWCPLHLWHECYH [Phage-353]: the “CD28 scFv signal” value in assay [1] came out at 1.69. Also, the “CD28 scFv signal in presence of CD28” value in assay [2] worked out at 0.182.

Regarding MDWCPTDLWHECFA [Phage-333], the “CD28 scFv signal” value in assay [1] was 2.07. The “CD28 scFv signal in presence of CD28” value in assay [2] was determined as 0.154.

For MDWCPRNLWHECFA [Phage-342], the “CD28 scFv signal” value in assay [1] stood at 1.97. The “CD28 scFv signal in presence of CD28” value in assay [2] turned out to be 0.175.

On to MDWCPRPLWHECFA [Phage-359], for which, in assay [1], the “CD28 scFv signal” value stood at 1.44. In addition, the “CD28 scFv signal in presence of CD28” value in assay [2] was found to be 0.138.

As for MDWCPMNLWHECFA [Phage-351], in assay [1], the “CD28 scFv signal” value was 1.74. Also, the “CD28 scFv signal in presence of CD28” value in assay [2] was found to be 0.16.

In the case of MHWCPLHLWNECFA [Phage-378], the “CD28 scFv signal” value in assay [1] came out at 0.575. For the same molecule, the “CD28 scFv signal in presence of CD28” value in assay [2] turned out to be 0.083.

MHWCPRHLWSECFN [Phage-361]: in assay [1], the “CD28 scFv signal” value was found to be 1.43. In addition, the “CD28 scFv signal in presence of CD28” value in assay [2] stood at 0.478.

In the case of MDFCPRFLWHECFN [Phage-345], the “CD28 scFv signal” value in assay [1] turned out to be 1.91. The “CD28 scFv signal in presence of CD28” value in assay [2] is 0.225.

In the case of MDWCPRYLWVDCFA [Phage-372], the “CD28 scFv signal” value in assay [1] came to 0.917. The “CD28 scFv signal in presence of CD28” value in assay [2] turned out to be 0.218.

Turning to MAWCPRILWHQCFN [Phage-381], the “CD28 scFv signal” value in assay [1] was determined as 0.322. Besides, the “CD28 scFv signal in presence of CD28” value in assay [2] is 0.129.

(Values after patent US20230357447A1 (JANUX THERAPEUTICS, published 2023).)
